# Laboratory results published in patent US20200317791A1 (Janssen / Centocor, published 2020).
# Like-named read-outs stand apart in the source and are kept apart here.
# T1: A24_A*24:02 (human, UniProt A*24:02)
# T1 construct: on LABScreen bead; also called HLA-A*24:02 (LABScreen class I bead)
# T1 heavy chain: not shown
# What was measured:
# [1] = biological target: T2, CW6W36 (rhHLA-Cw6/ADAMTSL5) (human); experiment: SPR ProteOn XPR36, captured mAb
# T2 construct: also called CW6W36.002; rHLA-Cw6/ADAMTSL5
# Procedure: (§1) Anti-HLA-Cw6 mAbs were captured at ligand densities ranging from 100 to 200 response units. […] All analyses were conducted in PBST at 100 μL/min flow rate with association and dissociation times of 180 and 900 seconds, respectively. […] Analyte raw data was double referenced by subtraction of the blank surface response at “interspots” (to correct for refractive index changes and any non-specific interactions with the chip surface) and of the buffer blank response (to correct for any baseline drift resulting from mAb dissociation over time). Referenced data were globally fit to a 1:1 simple Langmuir binding model. Kinetic parameters were calculated for each mAb/antigen combination or interaction using Bio-Rad ProteOn Manager software (version 3.1.0.6) with parameter (kon, koff, Rmax) scope and type set to “Grouped” and “Fitted,” respectively.
# CW6W32 (rhHLA-Cw6/TRAT) [2] = biological target: T3, CW6W32 (rhHLA-Cw6/TRAT) (human); experiment: SPR ProteOn XPR36, captured mAb
# T3 construct: also called CW6W32.009; rHLA-Cw6/TRAT
# Procedure: as §1
# [3] = biological target: T4, CW6W3.ECO.PP.002/.003 (rhHLA-Cw6/ARF) (human); experiment: SPR ProteOn XPR36, captured mAb; valid kinetic fit;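 as to Kd: Anti-HLA-Cw6 mAbs captured at 100–200 RU, antigen flowed in PBST, 180 s association and 900 s dissociation, double-referenced sensorgrams globally fit to a 1:1 Langmuir model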;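 as to koff: Anti-HLA-Cw6 mAbs captured at 100–200 RU, antigen flowed in PBST, 180 s association and 900 s dissociation, double-referenced sensorgrams globally fit to a 1:1 Langmuir model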
# T4 construct: also called rhHLA-Cw6/ARFN; rHLA-Cw6/ARFN
# Procedure: as §1
# A24_A*24:02 [4] = biological target: T1, A24_A*24:02; experiment: LABScreen beads
# Procedure: The LAB Screen (One Lambda) assay investigates antibody binding to a panel of 97 Class I HLA alleles (HLA-A, -B, and -C) using a bead-based fluorescent flow technology (Luminex 100; Luminex; Austin, Tex.). In a 96-well assay plate, 5 μl of the LAB Screen (One Lambda #LS1A04) beads were incubated with 20 μl of each test antibody (10 μg/ml) for 30 minutes in the dark at RT with gentle shaking. After the incubation was complete, 150 μl of the supplied 1X wash buffer was added to each well, and the plate was centrifuged at 1300×g for 5 minutes at RT. The wash solution was removed by flicking, and the plates were washed one more time. A 1× PE-conjugated anti-human IgG (One Lambda #LSAB-2) solution was prepared and 100 μl/well added to the assay plate. The plate was incubated for 30 minutes in the dark at RT with gentle shaking. The beads were then washed twice as described above, and then 80 μl/well of 1× PBS was added to each well. The plate was analyzed on a Luminex 100 instrument, and the data was analyzed using the Fusion 3.0 Software (One Lambda).
# Purified antibodies were analyzed for allelic specificity by the LAB SCREEN® assay, which evaluates qualitative antibody binding to 97 Class I HLA alleles (HLA-A, -B and -C) using bead-based fluorescent flow technology (Luminex 100).
# CW6W54.001 = experiment: SPR Biacore 8K, captured mAb; Kinetic fit not valid
# CW6W35.001 = experiment: as above
# CW6W32 (rhHLA-Cw6/TRAT) [5] = biological target: T3, CW6W32 (rhHLA-Cw6/TRAT); experiment: as above
# CW6W53.001 = experiment: as above
# CW6W51.001 = experiment: as above
# [6] = biological target: T4, CW6W3.ECO.PP.002/.003 (rhHLA-Cw6/ARF); experiment: SPR ProteOn XPR36, captured mAb
# Procedure: as §1
# A24_A*24:02 [7] = biological target: T1, A24_A*24:02; experiment: LABScreen beads
# [8] = biological target: T2, CW6W36 (rhHLA-Cw6/ADAMTSL5); experiment: SPR ProteOn XPR36, captured mAb; valid kinetic fit, range of two replicates
# Procedure: as §1
# [9] = biological target: T2, CW6W36 (rhHLA-Cw6/ADAMTSL5); experiment: SPR ProteOn XPR36, captured mAb; valid kinetic fit, range of two replicates (second end)
# Procedure: as §1
# [10] = biological target: T2, CW6W36 (rhHLA-Cw6/ADAMTSL5); experiment: SPR Biacore 8K, captured mAb; Acceptable fit
# Source text: To further characterize the ability of the antibodies to differentiate between class I MHC molecules.
# CW6W32 (rhHLA-Cw6/TRAT) [11] = biological target: T3, CW6W32 (rhHLA-Cw6/TRAT); experiment: SPR ProteOn XPR36, captured mAb; valid kinetic fit;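 as to Kd: Anti-HLA-Cw6 mAbs captured at 100–200 RU, antigen flowed in PBST, 180 s association and 900 s dissociation, double-referenced sensorgrams globally fit to a 1:1 Langmuir model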;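 as to koff: Anti-HLA-Cw6 mAbs captured at 100–200 RU, antigen flowed in PBST, 180 s association and 900 s dissociation, double-referenced sensorgrams globally fit to a 1:1 Langmuir model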
# Procedure: as §1
binder,measurement,setting,value
"CW6B188 (antibody, V domains shown, also called CW6B188.001; CW6M188 (DNA ID)) VH: EVQLVESGGGLVQPGGSLRLSCAASGFTFTNYWMTWVRQAPGKGLEWVANIKQSGNEKYYVDSVKGRFTISRDNAKNSLYLQMNSLRAEDTAVYYCARTLYEWELEPFDYWGQGTLVTVSS VL: SYVLTQPPSVSVAPGQTARITCGGNRIGSKNLHWYQQKPGQAPVLVVYDDSDRPSGIPERFSGSNSGSTATLTISRVEAGDEADYYCQVWDSSRDHVVFGGGTKLTVL",binding result,[1],binds
same,binding result,CW6W32 (rhHLA-Cw6/TRAT) [2],binds
same,Kd,[3],0.12 nM
same,koff,[3],0.000574 s⁻¹
same,kon,[3],5.66e+06 M⁻¹ s⁻¹
same,binding result,A24_A*24:02 [4],no binding (tested: 10 µg/ml)
"CW6B130 (antibody, V domains shown, also called CW6B130.001; CW6M130 (DNA ID)) VH: QLQLQESGPGLVKPSETLSLTCTVSGASISSINYYWGWIRQPPGKGLEWIGSFYYSGNTYYNPSLKSRVTISVDTSKNYFSLKLNSVTAADTAVYYCAREYYDSSGYYPFEPWGQGTLVTVSS VL: SYVLTQPPSVSVAPGQTARITCGGDNIGSESVHWYQQKPGQAPVLVVYDDTDRPSGIPERFSGSKSGTTATLTISWVEAGDEADYYCQVWDSSSDHVVFGGGTKLTVL",Kd,CW6W54.001,0.0828 nM
same,koff,CW6W54.001,0.00204 s⁻¹
same,kon,CW6W54.001,2.47e+07 M⁻¹ s⁻¹
same,Kd,CW6W35.001,6.04 nM
same,koff,CW6W35.001,0.0101 s⁻¹
same,kon,CW6W35.001,1.67e+06 M⁻¹ s⁻¹
same,Kd,CW6W32 (rhHLA-Cw6/TRAT) [5],0.622 nM
same,koff,CW6W32 (rhHLA-Cw6/TRAT) [5],0.00509 s⁻¹
same,kon,CW6W32 (rhHLA-Cw6/TRAT) [5],8.2e+06 M⁻¹ s⁻¹
same,Kd,CW6W53.001,0.205 nM
same,koff,CW6W53.001,0.0054 s⁻¹
same,kon,CW6W53.001,2.63e+07 M⁻¹ s⁻¹
same,Kd,CW6W51.001,0.571 nM
same,koff,CW6W51.001,0.000389 s⁻¹
same,kon,CW6W51.001,681000 M⁻¹ s⁻¹
same,binding result,[6],binds
same,binding result,A24_A*24:02 [7],no binding (tested: 10 µg/ml)
same,Kd,[8],0.0586 nM
same,koff,[8],0.00124 s⁻¹
same,kon,[8],1.66e+07 M⁻¹ s⁻¹
same,Kd,[9],0.0713 nM
same,koff,[9],0.00097 s⁻¹
same,kon,[9],1.75e+07 M⁻¹ s⁻¹
same,Kd,[10],0.272 nM
same,koff,[10],0.00184 s⁻¹
same,kon,[10],6.77e+06 M⁻¹ s⁻¹
same,Kd,CW6W32 (rhHLA-Cw6/TRAT) [11],0.27 nM
same,koff,CW6W32 (rhHLA-Cw6/TRAT) [11],0.00272 s⁻¹
same,kon,CW6W32 (rhHLA-Cw6/TRAT) [11],1.03e+07 M⁻¹ s⁻¹
